Measured values published in patent US20230340112A1.

Key:
[1] = biological target: human SIRPα expressed on the surface of human monocyte-derived dendritic cells (human) (UniProt P78324); experiment: flow cytometry on human monocyte-derived dendritic cells
[2] = biological target: mDC cell surface SIRPα (human) (UniProt P78324); experiment: FACS binding; Donor #298; isotype control, flat curve
[3] = biological target: cell-surface SIRPα (mDC) (human) (UniProt P78324); experiment: FACS blocking of CD47/SIRPα; Donor #296; isotype control, flat curve
[4] = biological target: mDC cell surface SIRPα (human) (UniProt P78324); experiment: FACS binding; Donor #296; isotype control, flat curve
[5] = biological target: cell-surface SIRPα (mDC) (human) (UniProt P78324); experiment: FACS blocking of CD47/SIRPα; Donor #298; isotype control, flat curve

Chain of cell-surface SIRPα (mDC) (human) (P78324 31-504): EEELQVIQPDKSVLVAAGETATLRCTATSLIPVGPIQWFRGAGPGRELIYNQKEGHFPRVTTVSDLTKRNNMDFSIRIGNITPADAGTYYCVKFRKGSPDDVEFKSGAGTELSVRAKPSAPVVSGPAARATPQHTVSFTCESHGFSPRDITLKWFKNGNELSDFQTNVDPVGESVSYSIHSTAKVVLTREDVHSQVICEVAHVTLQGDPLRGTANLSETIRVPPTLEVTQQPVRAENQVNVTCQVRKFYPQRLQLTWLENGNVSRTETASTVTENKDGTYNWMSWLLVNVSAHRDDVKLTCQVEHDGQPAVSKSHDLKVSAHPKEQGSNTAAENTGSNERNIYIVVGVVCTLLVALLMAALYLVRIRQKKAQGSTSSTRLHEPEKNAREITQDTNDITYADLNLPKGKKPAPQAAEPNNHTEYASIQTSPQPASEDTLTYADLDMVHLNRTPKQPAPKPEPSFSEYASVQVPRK
Chain of mDC cell surface SIRPα (human) (P78324 31-504): as above
Chain of human SIRPα expressed on the surface of human monocyte-derived dendritic cells (human) (P78324 31-504): as above

| Kd [1] | EC50 [2] | IC50 [3] | EC50 [4] | IC50 [5] | Substance |
| --- | --- | --- | --- | --- | --- |
| 0.0021 nM |  |  |  |  | IgG4 isotype (antibody) |
|  | 0.025 nM | 0.424 nM | 38.6 nM | 0.0177 nM | IgG4 isotype |
